Laboratory results reported in patent US20250051433A1.

Tests used:
[1] = target: human long form TSLP expressed on cell membrane; test: FACS on cells expressing the membrane human long-form TSLP fusion protein, MFI; ambiguous fit of a flat curve (Bottom 799.3, Top 857.9), see non_binding; unit taken from the concentration axis
[2] = target: human long form TSLP expressed on cell membrane; test: FACS on cells expressing the membrane human long-form TSLP fusion protein, MFI; ambiguous fit of a flat curve (Bottom 609.8, Top ~ 596.1), see non_binding; unit taken from the concentration axis
[3] = target: human long form TSLP expressed on cell membrane; test: FACS on cells expressing the membrane human long-form TSLP fusion protein, MFI; fit of a flat curve (Bottom 626.4, Top ~ 628.6), see non_binding; unit taken from the concentration axis
[4] = target: human long form TSLP expressed on cell membrane; test: FACS on cells expressing the membrane human long-form TSLP fusion protein, MFI; fit of a flat curve (Bottom 695.0, Top 1001), see non_binding; unit taken from the concentration axis
[5] = target: human long form TSLP expressed on cell membrane; test: FACS on cells expressing the membrane human long-form TSLP fusion protein, MFI; ambiguous fit of a flat curve (~ 906.7, ~ 1190), column headed IC50, see non_binding; unit taken from the concentration axis
[6] = target: membrane short-form huTSLP fusion protein (human); test: FACS on cells expressing membrane short-form huTSLP, MFI; ambiguous fit of a flat curve (Bottom 692.9, Top 827.7), see non_binding; unit taken from the concentration axis
membrane short-form huTSLP fusion protein (human), sequence (chain, as listed by the source limits assumed): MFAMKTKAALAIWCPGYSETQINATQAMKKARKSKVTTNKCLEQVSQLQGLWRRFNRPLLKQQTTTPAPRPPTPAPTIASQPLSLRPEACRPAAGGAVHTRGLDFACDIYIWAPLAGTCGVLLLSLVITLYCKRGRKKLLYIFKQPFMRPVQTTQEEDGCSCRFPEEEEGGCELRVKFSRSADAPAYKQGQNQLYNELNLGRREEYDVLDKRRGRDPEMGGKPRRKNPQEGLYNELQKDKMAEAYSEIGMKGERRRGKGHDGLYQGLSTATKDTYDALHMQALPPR

[7] = target: human long-form TSLP protein (Acro, tsp-h5255 or tsp-h52ha) (human) (UniProt Q969D9); test: ELISA on coated human long-form TSLP, OD450; ambiguous fit of a flat curve (Bottom 0.07414, Top ~ 1078), see non_binding; unit taken from the concentration axis
human long-form TSLP protein (Acro, tsp-h5255 or tsp-h52ha) (human), sequence (Q969D9 29-159 R127A/R130A limits assumed): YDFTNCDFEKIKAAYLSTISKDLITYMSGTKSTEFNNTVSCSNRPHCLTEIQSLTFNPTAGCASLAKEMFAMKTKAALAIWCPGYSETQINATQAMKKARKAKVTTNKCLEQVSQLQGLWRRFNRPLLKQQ

human long form TSLP expressed on cell membrane, sequence (fusion protein, as listed by the source): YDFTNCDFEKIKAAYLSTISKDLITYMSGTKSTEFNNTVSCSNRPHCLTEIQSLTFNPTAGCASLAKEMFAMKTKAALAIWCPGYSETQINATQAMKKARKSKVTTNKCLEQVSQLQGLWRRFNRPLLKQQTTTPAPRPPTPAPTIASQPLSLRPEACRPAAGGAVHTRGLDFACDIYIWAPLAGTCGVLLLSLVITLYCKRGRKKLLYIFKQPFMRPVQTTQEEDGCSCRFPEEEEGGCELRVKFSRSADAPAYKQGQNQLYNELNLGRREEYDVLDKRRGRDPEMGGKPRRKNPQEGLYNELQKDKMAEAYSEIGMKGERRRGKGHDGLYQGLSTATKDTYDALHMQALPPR

## IgG2 Isotype (antibody)
[1]
  EC50: 0.0117 µg/mL
[2]
  EC50: 0.322 µg/mL
[3]
  EC50: 5.86 µg/mL

## Isotype (antibody)
[4]
  EC50: 21.1 µg/mL
[5]
  EC50: 0.0411 µg/mL

## Isotype mAb (antibody)
[6]
  EC50: 0.0115 µg/mL
[7]
  EC50: 40.8 µg/mL
